Target: CD20 (UniProt P11836)
Assay: cell-based or functional assay

Chain of UniProt P11836 (P11836 whole entry): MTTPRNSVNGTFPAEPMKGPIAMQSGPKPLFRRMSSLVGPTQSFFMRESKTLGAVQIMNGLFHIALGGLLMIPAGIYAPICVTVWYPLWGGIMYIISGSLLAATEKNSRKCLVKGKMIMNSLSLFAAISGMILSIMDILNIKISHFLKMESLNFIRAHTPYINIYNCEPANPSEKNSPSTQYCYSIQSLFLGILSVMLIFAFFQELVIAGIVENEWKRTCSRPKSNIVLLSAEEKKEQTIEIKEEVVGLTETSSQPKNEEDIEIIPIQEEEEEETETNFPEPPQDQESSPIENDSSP

EC:50 of percent specific lysis of ARH-77 cells, 4 h caspase assay, AB-202 + 0.01 µg/mL Obinutuzumab | EC:50 of percent specific lysis of ARH-77 cells, 4 h caspase assay, AB-202 + 0.1 µg/mL Obinutuzumab | EC:50 of percent specific lysis of ARH-77 cells, 4 h caspase assay, AB-202 + 1 µg/mL Obinutuzumab | EC:50 of percent specific lysis of ARH-77 cells, 4 h caspase assay, CBNK + 0.01 µg/mL Obinutuzumab | EC:50 of percent specific lysis of ARH-77 cells, 4 h caspase assay, CBNK + 0.1 µg/mL Obinutuzumab | EC:50 of percent specific lysis of ARH-77 cells, 4 h caspase assay, CBNK + 1 µg/mL Obinutuzumab | EC:50 of percent specific lysis of ARH-77 cells, 4 h caspase assay, AB-202 + 0.1 µg/mL Rituximab | EC:50 of percent specific lysis of ARH-77 cells, 4 h caspase assay, AB-202 + 1 µg/mL Rituximab | EC:50 of percent specific lysis of ARH-77 cells, 4 h caspase assay, CBNK + 0.01 µg/mL Rituximab | EC:50 of percent specific lysis of ARH-77 cells, 4 h caspase assay, CBNK + 0.1 µg/mL Rituximab | EC:50 of percent specific lysis of ARH-77 cells, 4 h caspase assay, CBNK + 1 µg/mL Rituximab | Substance | fold increase of AB-202 killing activity on ARH-77 cells with 1 µg/mL Obinutuzumab versus no antibody | fold increase of CBNK killing activity on ARH-77 cells with 1 µg/mL Obinutuzumab versus no antibody
1.21 | 1.05 | 0.97 | 2.99 | 0.85 | 0.37 |  |  |  |  |  | Obinutuzumab (antibody) | 2.9 fold | 66.5 fold
 |  |  |  |  |  | 1.56 | 1.49 | 11 | 3.25 | 2.39 | Rituximab (antibody) |  | 
